Laboratory results from patent US20130288983A1 (Amgen, published 2013).

T1: Activin A (Homo sapiens (Human), UniProt P08476 311-426)
T1 sequence: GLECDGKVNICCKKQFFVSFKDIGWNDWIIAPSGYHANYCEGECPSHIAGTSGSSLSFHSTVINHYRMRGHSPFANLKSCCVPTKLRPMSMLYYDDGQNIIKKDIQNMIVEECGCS


target: T1, Activin A; test: Biacore SPR grade, COS transient conditioned media, 20 nM activin A
Experimental: Qualitative BIAcore® Assay. E28 and R40 were substituted respectively with other natural amino acids in fusions with IgG1 Fc as described above. Each vActRIIB-IgG1Fc sample from conditioned media was captured on goat anti-human IgG1 Fc antibody (Jackson Immuno Research, cat#109-005-098, lot 63550) coated CMS surface. 20 nM of Activin A was injected over captured sample surfaces using BIACore2000 (BIACore Life Sciences, Piscataway, N.J.). The resulting sensorgrams were normalized to the captured RL (500 RU) of vActRIIB-IgG1Fc variants. The normalized binding response (RU) for some variants are shown in Table 2, and is further described below. Relative binding affinity for activin was also determined by Biacore measurements using conditioned media obtained from mammalian cell expression. Activin A (20 nM) was used to capture soluble receptor polypeptide in the conditioned media and measured SPR signals were normalized. Normalized SPR of +++++: >60, ++++:40-60, +++:20-40, ++:10-20, +: 5-10, −: <5.

Binder | normalized SPR signal [ru]
ActRIIB-IgG1 Fc E28F, linker GGGGS (Fc fusion, Tested from conditioned media) SGRGEAETRFCIYYNANWELERTNQSGLERCEGEQDKRLHCYASWRNSSGTIELVKKGCWLDDFNCYDRQECVATEENPQVYFCCCEGNFCNERFTHLPEAGGPEVTYEPPPTAPTGGGGSAPELLGGPSVFLFPPKPKDILMISRTPEVTCVVVDVSHEDPEVKFNWYVGGVEVHNAKTKPREEQYNSTYRVVSVLTVLHQDWLNGKEYKCKVSNKALPAPIEKTISKAKGQPREPQVYTLPPSRDELTKNQVSLTCLVKGFYPSDIAVEWESNGQPENNYKTTPPVLDSDGSFFLYSKLTVDKSRWQQGNVFSCSVMHEALHNHYTQKSLSLSPGK | 20 to 40
ActRIIB-IgG1 Fc E28I, linker GGGGS (Fc fusion, Tested from conditioned media) SGRGEAETRICIYYNANWELERTNQSGLERCEGEQDKRLHCYASWRNSSGTIELVKKGCWLDDFNCYDRQECVATEENPQVYFCCCEGNFCNERFTHLPEAGGPEVTYEPPPTAPTGGGGSAPELLGGPSVFLFPPKPKDILMISRTPEVTCVVVDVSHEDPEVKFNWYVGGVEVHNAKTKPREEQYNSTYRVVSVLTVLHQDWLNGKEYKCKVSNKALPAPIEKTISKAKGQPREPQVYTLPPSRDELTKNQVSLTCLVKGFYPSDIAVEWESNGQPENNYKTTPPVLDSDGSFFLYSKLTVDKSRWQQGNVFSCSVMHEALHNHYTQKSLSLSPGK | 10 to 20
ActRIIB-IgG1 Fc E28L, linker GGGGS (Fc fusion, Tested from conditioned media) SGRGEAETRLCIYYNANWELERTNQSGLERCEGEQDKRLHCYASWRNSSGTIELVKKGCWLDDFNCYDRQECVATEENPQVYFCCCEGNFCNERFTHLPEAGGPEVTYEPPPTAPTGGGGSAPELLGGPSVFLFPPKPKDILMISRTPEVTCVVVDVSHEDPEVKFNWYVGGVEVHNAKTKPREEQYNSTYRVVSVLTVLHQDWLNGKEYKCKVSNKALPAPIEKTISKAKGQPREPQVYTLPPSRDELTKNQVSLTCLVKGFYPSDIAVEWESNGQPENNYKTTPPVLDSDGSFFLYSKLTVDKSRWQQGNVFSCSVMHEALHNHYTQKSLSLSPGK | 5 to 10
ActRIIB-IgG1 Fc E28K, linker GGGGS (Fc fusion, Tested from conditioned media) SGRGEAETRKCIYYNANWELERTNQSGLERCEGEQDKRLHCYASWRNSSGTIELVKKGCWLDDFNCYDRQECVATEENPQVYFCCCEGNFCNERFTHLPEAGGPEVTYEPPPTAPTGGGGSAPELLGGPSVFLFPPKPKDILMISRTPEVTCVVVDVSHEDPEVKFNWYVGGVEVHNAKTKPREEQYNSTYRVVSVLTVLHQDWLNGKEYKCKVSNKALPAPIEKTISKAKGQPREPQVYTLPPSRDELTKNQVSLTCLVKGFYPSDIAVEWESNGQPENNYKTTPPVLDSDGSFFLYSKLTVDKSRWQQGNVFSCSVMHEALHNHYTQKSLSLSPGK | 5 to 10
ActRIIB-IgG1 Fc E28M, linker GGGGS (Fc fusion, Tested from conditioned media) SGRGEAETRMCIYYNANWELERTNQSGLERCEGEQDKRLHCYASWRNSSGTIELVKKGCWLDDFNCYDRQECVATEENPQVYFCCCEGNFCNERFTHLPEAGGPEVTYEPPPTAPTGGGGSAPELLGGPSVFLFPPKPKDILMISRTPEVTCVVVDVSHEDPEVKFNWYVGGVEVHNAKTKPREEQYNSTYRVVSVLTVLHQDWLNGKEYKCKVSNKALPAPIEKTISKAKGQPREPQVYTLPPSRDELTKNQVSLTCLVKGFYPSDIAVEWESNGQPENNYKTTPPVLDSDGSFFLYSKLTVDKSRWQQGNVFSCSVMHEALHNHYTQKSLSLSPGK | 10 to 20
ActRIIB-IgG1 Fc E28H, linker GGGGS (Fc fusion, Tested from conditioned media) SGRGEAETRHCIYYNANWELERTNQSGLERCEGEQDKRLHCYASWRNSSGTIELVKKGCWLDDFNCYDRQECVATEENPQVYFCCCEGNFCNERFTHLPEAGGPEVTYEPPPTAPTGGGGSAPELLGGPSVFLFPPKPKDILMISRTPEVTCVVVDVSHEDPEVKFNWYVGGVEVHNAKTKPREEQYNSTYRVVSVLTVLHQDWLNGKEYKCKVSNKALPAPIEKTISKAKGQPREPQVYTLPPSRDELTKNQVSLTCLVKGFYPSDIAVEWESNGQPENNYKTTPPVLDSDGSFFLYSKLTVDKSRWQQGNVFSCSVMHEALHNHYTQKSLSLSPGK | 5 to 10
